T1: Abp1 SH3 (ABP1_YEAST), P15891
T1 chain: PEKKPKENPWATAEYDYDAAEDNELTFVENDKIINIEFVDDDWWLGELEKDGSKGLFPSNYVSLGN

For the test, the target named is T1, Abp1 SH3 (ABP1_YEAST), P15891. The test is described as follows: SPOT array.
The molecule RSSTPSHPRMPKP [YBR245C 789-801] showed a normalised SPOT signal, Boehringer light units (BLU); mean over the file's lines of this peptide of 1930.
RLSSVSLSKRPERP [YKL185W 146-159]: the normalised SPOT signal, Boehringer light units (BLU); mean over the file's lines of this peptide turned out to be 412.
RIPVLPPPRSPNRP [YER158C 359-372] had a normalised SPOT signal, Boehringer light units (BLU); mean over the file's lines of this peptide of 7670.
In turn, RLPKALLPIGNRP [YOR260W 63-75] displayed a normalised SPOT signal, Boehringer light units (BLU); mean over the file's lines of this peptide of 702.
Turning to RNIPPPPPPPPPKP [YMR089C 152-165], the normalised SPOT signal, Boehringer light units (BLU); mean over the file's lines of this peptide turned out to be 1000.
RPTQVSRPLGGRP [YDR024W 78-90] had a normalised SPOT signal, Boehringer light units (BLU); mean over the file's lines of this peptide of 3290.
Molecule RPQIYSEPTRTKP [YPR122W 608-620] displayed a normalised SPOT signal, Boehringer light units (BLU); mean over the file's lines of this peptide of 373.
Turning to RQPIVQTPHVPDRP [YPR104C 727-740], the normalised SPOT signal, Boehringer light units (BLU); mean over the file's lines of this peptide was 56.7.
Molecule RSNKWRSIGTPSRP [YCR033W 218-231] registered a normalised SPOT signal, Boehringer light units (BLU); mean over the file's lines of this peptide of 148.
RLSVKSSRRNPGKP [YGL041C 90-103] displayed a normalised SPOT signal, Boehringer light units (BLU); mean over the file's lines of this peptide of 125.
Molecule RPPPPPIPSTQKP [YNL094W 468-480] returned a normalised SPOT signal, Boehringer light units (BLU); mean over the file's lines of this peptide of 2820.
For the molecule RQPTIATTDKPDRP [YDR246W 151-164], the normalised SPOT signal, Boehringer light units (BLU); mean over the file's lines of this peptide came to 83.4.
Molecule RNLFDDAPATPPRP [YJL194W 14-27] had a normalised SPOT signal, Boehringer light units (BLU); mean over the file's lines of this peptide of 126.
RRSSYGYNEVPPKP [YHL024W 604-617] yielded a normalised SPOT signal, Boehringer light units (BLU); mean over the file's lines of this peptide of 188.
For the molecule RTKAIHSHGAPFRP [YBL080C 12-25], the normalised SPOT signal, Boehringer light units (BLU); mean over the file's lines of this peptide stood at 49.4.
Consider RRMQKFLPPEGKP [YPR140W 364-376], for which the normalised SPOT signal, Boehringer light units (BLU); mean over the file's lines of this peptide was determined as 615.
Regarding RPAGINDSPSPVKP [YGR092W 44-57], the normalised SPOT signal, Boehringer light units (BLU); mean over the file's lines of this peptide was found to be 71.
In turn, RNFYKKYTGLPKKP [YOL090W 17-30] returned a normalised SPOT signal, Boehringer light units (BLU); mean over the file's lines of this peptide of 112.
RSEKIMPFLSPPRP [YGL064C 428-441] displayed a normalised SPOT signal, Boehringer light units (BLU); mean over the file's lines of this peptide of 701.
Regarding RMTDSVLVKSPQKP [YLR006C 664-677], the normalised SPOT signal, Boehringer light units (BLU); mean over the file's lines of this peptide stood at 2960.
Consider RVEMQSKKEDPNRP [YMR241W 239-252], for which the normalised SPOT signal, Boehringer light units (BLU); mean over the file's lines of this peptide turned out to be 1200.
RKTWESIPPKFRP [YOR236W 58-70] registered a normalised SPOT signal, Boehringer light units (BLU); mean over the file's lines of this peptide of 1050.
Regarding RQIMIKSPNDFKP [YBL034C 808-820], the normalised SPOT signal, Boehringer light units (BLU); mean over the file's lines of this peptide was determined as 2000.
RWINKIGPLFDKP [YDR176W 652-664] returned a normalised SPOT signal, Boehringer light units (BLU); mean over the file's lines of this peptide of 287.
For the molecule RRRDFGAPANKRP [YGR074W 130-142], the normalised SPOT signal, Boehringer light units (BLU); mean over the file's lines of this peptide amounted to 71.9.
RYTYLPSPSYFRP [YPL066W 175-187] yielded a normalised SPOT signal, Boehringer light units (BLU); mean over the file's lines of this peptide of 276.
Molecule RVSITKQPKALKP [YIL074C 41-53] displayed a normalised SPOT signal, Boehringer light units (BLU); mean over the file's lines of this peptide of 244.
For RLLLEFDEEYPNKP [YGL058W 54-67], the normalised SPOT signal, Boehringer light units (BLU); mean over the file's lines of this peptide amounted to 97.1.
Molecule RSRLQEKELPPIKP [YBL007C 612-625] came in with a normalised SPOT signal, Boehringer light units (BLU); mean over the file's lines of this peptide of 88.5.
For RSMTDILPLSSKP [YCR066W 152-164], the normalised SPOT signal, Boehringer light units (BLU); mean over the file's lines of this peptide is 5410.
Regarding RRKKQKKKPTPTRP [YKL089W 336-349], the normalised SPOT signal, Boehringer light units (BLU); mean over the file's lines of this peptide was determined as 33.3.
Turning to RRQHEQWPAYEKP [YHR185C 60-72], the normalised SPOT signal, Boehringer light units (BLU); mean over the file's lines of this peptide stood at 300.
Turning to RNRASTLPSYPKP [YMR172W 515-527], the normalised SPOT signal, Boehringer light units (BLU); mean over the file's lines of this peptide was 224.
Molecule RKKQKKKPTPTRP [YKL089W 337-349] registered a normalised SPOT signal, Boehringer light units (BLU); mean over the file's lines of this peptide of 106.
Then RKSSDIGHIDPWRP [YOR156C 78-91], with 77.8.
RLNDQDHPLQAKP [YHR159W 69-81] displayed a normalised SPOT signal, Boehringer light units (BLU); mean over the file's lines of this peptide of 104.
Then RLTSEPNPDLIRP [YPR045C 202-214], with 94.5; and RSSITNPVFNPRKP [YMR068W 271-284], with 527.
In the case of RNNAYLPEFEPNRP [YNL233W 771-784], the normalised SPOT signal, Boehringer light units (BLU); mean over the file's lines of this peptide was 44.7.
With RLNAVKHPKILKP [YER081W 41-53], the normalised SPOT signal, Boehringer light units (BLU); mean over the file's lines of this peptide turned out to be 188.
Consider RLLSTKKPMFDRP [YKL219W 373-385], for which the normalised SPOT signal, Boehringer light units (BLU); mean over the file's lines of this peptide amounted to 955.
On to RRFSKRHNSNPRKP [YFR032C 54-67], for which the normalised SPOT signal, Boehringer light units (BLU); mean over the file's lines of this peptide was 89.
On to RPGIPLKPMLAKP [YDL164C 386-398], for which the normalised SPOT signal, Boehringer light units (BLU); mean over the file's lines of this peptide was found to be 42200.
With RNTTLTWPQLFKP [YOR144C 235-247], the normalised SPOT signal, Boehringer light units (BLU); mean over the file's lines of this peptide came to 344.
The molecule RPSQTLTPMGNKP [YGR097W 8-20] showed a normalised SPOT signal, Boehringer light units (BLU); mean over the file's lines of this peptide of 4080.
RSLSLMDPALQKP [YDR186C 539-551] gave a normalised SPOT signal, Boehringer light units (BLU); mean over the file's lines of this peptide of 431.
RRKIERDPNAPKKP [YDR174W 96-109] gave a normalised SPOT signal, Boehringer light units (BLU); mean over the file's lines of this peptide of 66.1.
Molecule RRSADIGTDKPVKP [YPL181W 404-417] showed a normalised SPOT signal, Boehringer light units (BLU); mean over the file's lines of this peptide of 121.
RKLTFADVKKPDKP [YMR273C 809-822] showed a normalised SPOT signal, Boehringer light units (BLU); mean over the file's lines of this peptide of 62.6.
RSRHEVPKRSPEKP [YNL278W 803-816]: the normalised SPOT signal, Boehringer light units (BLU); mean over the file's lines of this peptide came out at 76.3.
In turn, RYASSLPPNALKP [YGL191W 8-20] displayed a normalised SPOT signal, Boehringer light units (BLU); mean over the file's lines of this peptide of 219.
RPLIQKGPLYQKP [YDR104C 1028-1040] registered a normalised SPOT signal, Boehringer light units (BLU); mean over the file's lines of this peptide of 359.
Take RVRKTHVPASKRP [YGL061C 212-224]: the normalised SPOT signal, Boehringer light units (BLU); mean over the file's lines of this peptide was determined as 78.6.
RNTAQSGNLKPERP [YEL062W 541-554]: the normalised SPOT signal, Boehringer light units (BLU); mean over the file's lines of this peptide came to 115.

The values are drawn from article PMC314469, “Protein Interaction Networks by Proteome Peptide Scanning” (PLoS Biology, 2004).
